Reference: patent US20050276811A1

Assays:
[1] = biological target: IgM^CM-22; experiment: cell-based or functional assay
[2] = biological target: IgM^CM-22; experiment: SPR (BiaCore), IgM^CM-22 amine-coupled to CM5 chip, N2 injected at 10.5-120 µM, steady-state fit with 1:1 Langmuir isotherm
[3] = biological target: IgM^CM-22; experiment: competition ELISA: synthetic P8 peptide titrated against phage P8 binding to IgM^CM-22-coated plate

B1: self-peptide N2 (peptide)
peptide: LMKNMDPLNDNV
Binder B1 has a mean pathology score, intestinal RI in RAG-1-/- mice given IgM^CM-22 mixed with N2 versus IgM^CM-22 and saline (pathology score) [1] of 13 and a Kd [2] of 123 µM.

B2: synthetic peptide P8 (peptide)
peptide: NGNNVNGNRNNN
B2 was tested, and the concentration of P8 sufficient to block IgM^CM-22 [1] was 10 µM, the mean pathology score, intestinal RI in RAG-1-/- mice given IgM^CM-22 mixed with P8 versus IgM^CM-22 alone (pathology score) [1] was 6 and the IC50 [3] was 10 µM.
